# Data: PMC3785425
# How the values were obtained:
# [1] = biological target: NKTT120 (human (humanized antibody)); experiment: SPR; Biacore 3000; NKTT120 immobilised on the chip; FcγRI, FcγRIIIa or C1q as analyte at six different concentrations; BiaEvaluation software
# [2] = biological target: NKTT120 (human (humanized antibody))
# Chain of NKTT120 (human (humanized antibody)) (heavy, as listed by the source, chain 1 of 2): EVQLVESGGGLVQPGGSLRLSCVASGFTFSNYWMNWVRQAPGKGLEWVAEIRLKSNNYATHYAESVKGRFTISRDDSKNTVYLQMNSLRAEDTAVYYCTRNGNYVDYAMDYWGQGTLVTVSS
# Chain of NKTT120 (human (humanized antibody)) (light, as listed by the source, chain 2 of 2): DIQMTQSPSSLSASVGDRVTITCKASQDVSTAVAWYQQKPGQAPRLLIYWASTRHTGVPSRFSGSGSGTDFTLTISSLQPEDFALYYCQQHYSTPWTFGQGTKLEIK
# Chain of FcγRIIIa (P08637 17-254): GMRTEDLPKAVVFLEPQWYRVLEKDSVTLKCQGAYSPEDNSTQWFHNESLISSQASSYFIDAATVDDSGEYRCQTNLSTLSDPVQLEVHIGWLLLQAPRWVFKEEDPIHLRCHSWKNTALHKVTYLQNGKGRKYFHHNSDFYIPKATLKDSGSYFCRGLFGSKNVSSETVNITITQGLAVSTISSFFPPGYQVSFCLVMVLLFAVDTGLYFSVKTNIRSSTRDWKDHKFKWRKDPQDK
# Chain of FcγRI (P12314 16-374): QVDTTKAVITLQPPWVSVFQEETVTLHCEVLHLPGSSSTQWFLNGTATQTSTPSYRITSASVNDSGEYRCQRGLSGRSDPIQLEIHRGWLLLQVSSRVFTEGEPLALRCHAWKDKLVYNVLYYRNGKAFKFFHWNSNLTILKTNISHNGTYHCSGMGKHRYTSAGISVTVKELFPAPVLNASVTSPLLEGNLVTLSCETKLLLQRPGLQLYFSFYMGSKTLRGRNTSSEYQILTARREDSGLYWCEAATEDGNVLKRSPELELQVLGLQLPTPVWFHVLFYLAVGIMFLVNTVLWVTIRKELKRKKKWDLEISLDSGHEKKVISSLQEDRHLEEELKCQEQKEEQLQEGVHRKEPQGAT
Kd [1] [µM],Substance,"ADCC, cell killing of iTCR-expressing target cells by CD16-transduced NK-92 effector cells (E:T 60:1), NKTT120 at 1 and 20 µg/ml (34% to 44%) [2] [%]"
0.012,FcγRI (from UniProt P12314 16-374) (receptor),
0.122,FcγRIIIa (from UniProt P08637 17-254) (receptor),44
